Numbering of substitutions follows the chain as printed.
Key:
Assay in all cases: cleavage_in_vitro
[1] = molecular target: T1, PstI (Providencia stuartii 164) (UniProt P00640); details: NEB3, 37 C
T1 sequence: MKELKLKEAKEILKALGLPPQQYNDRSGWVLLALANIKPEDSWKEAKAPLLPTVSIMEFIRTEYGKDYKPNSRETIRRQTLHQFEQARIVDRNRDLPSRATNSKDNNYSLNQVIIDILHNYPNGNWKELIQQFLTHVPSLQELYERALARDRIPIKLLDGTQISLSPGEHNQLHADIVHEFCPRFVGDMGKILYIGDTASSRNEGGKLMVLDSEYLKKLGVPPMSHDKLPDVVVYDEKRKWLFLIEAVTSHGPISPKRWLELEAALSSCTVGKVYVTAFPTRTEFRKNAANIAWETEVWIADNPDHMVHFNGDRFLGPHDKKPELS

[2] = system: T2, SspI (Sphaerotilus species); details: NEB1, 37 C
T2 sequence: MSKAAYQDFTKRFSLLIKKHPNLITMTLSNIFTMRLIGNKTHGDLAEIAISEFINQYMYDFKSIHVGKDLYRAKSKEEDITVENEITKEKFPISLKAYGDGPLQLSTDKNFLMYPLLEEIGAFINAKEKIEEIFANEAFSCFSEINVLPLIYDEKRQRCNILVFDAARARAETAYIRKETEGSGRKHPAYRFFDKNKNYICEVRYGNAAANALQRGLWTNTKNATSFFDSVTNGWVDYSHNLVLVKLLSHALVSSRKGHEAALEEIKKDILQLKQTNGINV

[3] = system: T3, NcoI (Nocardia corallina); details: NEB1, 37 C
T3 sequence: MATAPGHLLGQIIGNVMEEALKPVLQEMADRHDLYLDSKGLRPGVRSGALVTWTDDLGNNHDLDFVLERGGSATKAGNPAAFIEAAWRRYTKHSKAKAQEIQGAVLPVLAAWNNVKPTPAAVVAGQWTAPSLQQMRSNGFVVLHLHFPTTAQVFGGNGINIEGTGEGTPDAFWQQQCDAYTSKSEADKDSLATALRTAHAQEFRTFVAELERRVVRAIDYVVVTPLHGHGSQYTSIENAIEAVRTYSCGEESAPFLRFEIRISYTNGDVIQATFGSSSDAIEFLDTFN

[4] = molecular target: T4, BamHI (Bacillus amyloliquefaciens) (UniProt P23940); details: NEB3, 37 C
T4 sequence: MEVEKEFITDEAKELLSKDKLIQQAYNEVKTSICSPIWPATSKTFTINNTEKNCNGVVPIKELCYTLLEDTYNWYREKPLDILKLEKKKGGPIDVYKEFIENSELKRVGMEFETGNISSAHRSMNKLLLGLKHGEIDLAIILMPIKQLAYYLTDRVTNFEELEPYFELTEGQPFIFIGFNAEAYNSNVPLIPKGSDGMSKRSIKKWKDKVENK

[5] = system: T5, BsmBI-HF N185Y/R232A (Bacillus stearothermophilus); details: NEB2, 55 C
T5 sequence: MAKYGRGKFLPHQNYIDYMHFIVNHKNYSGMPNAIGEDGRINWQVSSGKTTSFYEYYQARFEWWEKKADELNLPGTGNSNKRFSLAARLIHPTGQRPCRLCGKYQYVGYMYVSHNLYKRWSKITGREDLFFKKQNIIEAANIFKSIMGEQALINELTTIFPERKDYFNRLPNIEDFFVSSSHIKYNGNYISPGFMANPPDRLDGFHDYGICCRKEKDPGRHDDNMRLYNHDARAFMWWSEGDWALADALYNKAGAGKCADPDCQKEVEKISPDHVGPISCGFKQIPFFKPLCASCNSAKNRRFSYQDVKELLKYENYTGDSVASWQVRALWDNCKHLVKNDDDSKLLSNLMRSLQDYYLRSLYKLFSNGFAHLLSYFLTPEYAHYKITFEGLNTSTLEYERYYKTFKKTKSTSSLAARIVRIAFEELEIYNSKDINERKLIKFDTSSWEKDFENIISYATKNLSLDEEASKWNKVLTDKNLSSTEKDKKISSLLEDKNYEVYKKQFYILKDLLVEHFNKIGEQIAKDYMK

[6] = molecular target: T6, HindIII (Haemophilus influenzae Rd) (UniProt P43870); details: NEB2, 37 C
T6 sequence: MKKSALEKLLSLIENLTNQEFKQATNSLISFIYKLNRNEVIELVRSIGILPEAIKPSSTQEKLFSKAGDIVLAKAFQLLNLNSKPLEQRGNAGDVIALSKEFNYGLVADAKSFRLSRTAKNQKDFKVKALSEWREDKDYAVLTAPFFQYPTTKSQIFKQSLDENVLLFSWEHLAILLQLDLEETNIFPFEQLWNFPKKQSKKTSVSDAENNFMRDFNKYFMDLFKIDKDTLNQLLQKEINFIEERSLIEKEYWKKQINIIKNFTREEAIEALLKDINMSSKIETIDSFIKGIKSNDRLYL

[7] = system: T7, SbfI-HF K251A (Streptomyces species Bf-61); details: NEB1, 37 C
T7 sequence: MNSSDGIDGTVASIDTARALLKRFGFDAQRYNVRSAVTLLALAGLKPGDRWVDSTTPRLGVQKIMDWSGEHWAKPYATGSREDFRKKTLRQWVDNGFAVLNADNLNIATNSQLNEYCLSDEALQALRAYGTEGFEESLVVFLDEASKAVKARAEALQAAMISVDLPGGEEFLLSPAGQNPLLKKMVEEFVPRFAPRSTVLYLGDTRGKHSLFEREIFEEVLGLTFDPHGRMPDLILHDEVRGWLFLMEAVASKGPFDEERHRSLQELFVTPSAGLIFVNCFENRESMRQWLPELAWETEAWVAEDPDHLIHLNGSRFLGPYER

[8] = system: T8, SbfI (Streptomyces species Bf-61); details: NEB1, 37 C
T8 sequence: T7 sequence with A251K

[9] = molecular target: EcoRI (Escherichia coli RY13) (UniProt P00642); details: NEB3, 37 C
Sequence of EcoRI (Escherichia coli RY13) (P00642 whole entry): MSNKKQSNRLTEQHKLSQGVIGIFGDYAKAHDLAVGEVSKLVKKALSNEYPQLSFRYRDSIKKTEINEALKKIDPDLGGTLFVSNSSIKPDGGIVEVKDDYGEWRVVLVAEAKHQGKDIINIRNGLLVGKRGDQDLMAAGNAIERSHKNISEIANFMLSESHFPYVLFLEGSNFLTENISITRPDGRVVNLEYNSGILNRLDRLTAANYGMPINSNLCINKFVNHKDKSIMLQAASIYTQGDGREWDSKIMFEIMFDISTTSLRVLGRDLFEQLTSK

## lambda phage DNA
[1]
  activity (fidelity index): 120
[2]
  activity (fidelity index): 64
[3]
  activity (fidelity index): 120
[4]
  activity (fidelity index): 32
[5]
  activity (fidelity index): > 500
[6]
  activity (fidelity index): 250
[7]
  activity (fidelity index): 1000
[8]
  activity (fidelity index): 32
[9]
  activity (fidelity index): 250

— patent US20130122568
